Assay [1] addresses human PlGF-1 comprising amino acids 1-137 produced in human embryonic kidney cells (human) (UniProt P49763). The experiment in a line: Format 1 …, capture 2-826-335, detection 1-255-713; sFlt-1 77 pmol/L (ratio 2.5).
Assay [2] addresses recombinant human PlGF-1 (comprising amino acids 1-131) expressed in E. coli (R&D Systems) (human) (UniProt P49763). The assay is described as follows: … sandwich, capture MAb826, detection pAb264; antigen 250 pg/mL.
In assay [3] the target is T1, CHO human PlGF-1 fragment (comprising amino acids 17-131; ATCC PTA-8540) (human, UniProt P49763 35-221).
T1 sequence: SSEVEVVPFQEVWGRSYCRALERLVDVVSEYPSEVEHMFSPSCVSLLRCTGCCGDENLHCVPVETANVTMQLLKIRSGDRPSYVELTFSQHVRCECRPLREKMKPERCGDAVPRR
The experiment in a line: … sandwich, capture MAb255, detection pAb264; antigen 15 pg/mL.

For assay [4], the target named is T2, CHO human PlGF-1 comprising amino acids 1-137 (human PlGF-1-His (1-131), CHO 6305) (human, UniProt P49763 19-221, N-glycans at N21 (completely glycosylated) and N89 (partially glycosylated)).
T2 construct: Mature human PlGF-1 with 6xHis tag (137 amino acids); also called CHO (1-137)
T2 sequence: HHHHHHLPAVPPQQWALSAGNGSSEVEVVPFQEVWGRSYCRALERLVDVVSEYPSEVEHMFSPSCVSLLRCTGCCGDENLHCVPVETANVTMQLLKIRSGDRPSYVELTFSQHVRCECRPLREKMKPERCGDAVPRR
Described as above.

Assay [5] deals with T3, human PlGF-1 comprising amino acids 1-137 produced in human embryonic kidney cells (human, UniProt P49763 19-221).
T3 construct: Mature human PlGF-1 with 6xHis tag; also called HEK (1-137); full length HEK human PlGF-1 (1-137)
T3 sequence: T2 sequence
The assay is described as above.

Assay [6] concerns the target T4, human PlGF-1 fragment (comprising amino acids 17-131) produced in human embryonic kidney cells (human, UniProt P49763 35-221).
T4 sequence: T1 sequence
Described as above.

The target in assay [7] is T1, CHO human PlGF-1 fragment (comprising …). The assay is described as follows: … sandwich, capture MAb255, detection MAb826; antigen 15 pg/mL. The method in brief:
(§1)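 Human PlGF-1 antigen preparations, including CHO cell-expressed recombinant forms, spanned 0 to 1500 pg/mL in a sandwich immunoassay. A monoclonal anti-human PlGF-1 antibody, immobilized on magnetic microparticles through passive coating and EDAC cross-linking, captured the antigen, and an acridinium ester-labeled monoclonal anti-human PlGF-1 antibody detected it. Chemiluminescent relative light units (RLU) were recorded for every antigen level.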

For assay [8], the target named is T2, CHO human PlGF-1 comprising amino acids …. Described as above. The method in brief:
as §1

The target of assay [9] is T3, human PlGF-1 comprising amino acids …. The description is as above. The method in brief: as §1
Assay [10] deals with T4, human PlGF-1 fragment (comprising amino …). The description is as above. The method in brief: as §1
The target in assay [11] is T1, CHO human PlGF-1 fragment (comprising …). The assay is described as follows: … sandwich, capture MAb255, detection MAb826; antigen 250 pg/mL. The method in brief: as §1
Assay [12] has as its target T2, CHO human PlGF-1 comprising amino acids …. The description is as above. The method in brief: as §1
For assay [13], the target named is T3, human PlGF-1 comprising amino acids …. The assay is described as above. Summed up: as §1
The target in assay [14] is T4, human PlGF-1 fragment (comprising amino …). The description is as above. Summed up:
as §1

Assay [15] has as its target T1, CHO human PlGF-1 fragment (comprising …). The assay is described as follows: … sandwich, capture MAb255, detection MAb826; antigen 750 pg/mL. The method in brief:
as §1

Assay [16] has as its target T2, CHO human PlGF-1 comprising amino acids …. Described as above. The method in brief:
as §1

For assay [17], the target named is T3, human PlGF-1 comprising amino acids …. Described as above. Summed up: as §1
The target in assay [18] is T4, human PlGF-1 fragment (comprising amino …). Described as above. The method in brief:
as §1

For the molecule “native sFlt-1, isolated from human placental tissue (from UniProt P17948 27-687) (receptor)”, in assay [1], the % Inhibition was found to be 41.9% and the PlGF-1 Measured came to 594 pg/mL.

B1: monoclonal antibody 2-826-335 (produced by murine hybridoma cell line 2-826-335, ATCC PTA-8539) (antibody, mouse IgG1, V domains shown)
VH: QVQLKQSGPGLVQPSQSLSITCTVSGFSLTTYGIHWVRQSPGKGLEWLGVMWSGGDTDYDAAFISRLSISKDNSKSQVFFKMNSLQANDTGIYYCARYRFYGMDYWGQGTSVTVSS
VL: AIQMTQSSSSFSVSLGDRVTITCKASEDIYNRFAWYQQKPGNAPRLLISGAASLEAGVPSRFSGSGSGQDYTLSITSLQTEDVATYYCQQYWSTPWTFGGGTKLEIKR
notes: also called MAb826
B1: the RLU in assay [2] came to 231000 RLU.

B2: monoclonal antibody 1-255-713 (produced by murine hybridoma cell line 1-255-713, ATCC PTA-8536) (antibody, mouse IgG2a, V domains shown)
VH: QVHLQQSGAELMKPGASVKISCKATGYTFSSYWIEWVKQRPGHGLEWIGEILPGSVSNNFNEKFKDKATLTADPSSNTAYIQVSSLTSEDSAVYYCARSTGFYYGGNYFDHWGQGTTLAVSS
VL: DVVMTQTPLSLPVSPGDQASISCRSSQSLVHSNGHTYLHWYLQKPGQSPKLLIYKVSNRFSGVPDRVSGSGSGTDFTLKISRVEAEDLGVYFCSQSTHVPPTFGGGTKLEIKR
notes: also called MAb255
For B2, the RLU came out at 28700 RLU in assay [3]; 26400 RLU in assay [4]; 46700 RLU in assay [5]; 32900 RLU in [6]; 13300 RLU in [7]; 14500 RLU in assay [8]. Further, the RLU in [9] stood at 26700 RLU; in [10], 17200 RLU; in [11] it was 144000 RLU; in assay [12] it was 153000 RLU; in assay [13], 367000 RLU; in assay [14] it was 207000 RLU. In addition, the RLU in [15] came to 395000 RLU; in assay [16] it was 400000 RLU; in assay [17], 890000 RLU; in [18], 576000 RLU.

The record behind these values is patent publication US20100015637A1 (AbbVie / Abbott, published 2010).
